One protein from publication doi:10.1101/2020.05.24.113621 (bioRxiv, 2020) can be followed below.

The data set concerns the molecule itself. The data set can be described thus: crystal structure.

As for GNYNVF [hnRNPA2 mutant core segment GNYNVF (residues 286-291 with D290V)], the binding result was “binds”.
